Several values for one entry are separate records, joined by “and”; a condition that tells them apart may be missing. Equal values may be shown once.
Target: Catalytic Domain of Human HDAC7 (cdHDAC7), biotinylated (human)
Assay: BLI

- Kd: 720 nM and 1000 nM
Substance: Ac-Leu-Gly-Lys(Ac)-NH2 (LGKAc), acetylated peptide derived from histone 4 lysine 12
